Data from EP1897948A1 (ZymoGenetics, Inc., dated 2008).

Target: the molecule itself
Assay: western blot of BHK media, reducing (29 kDa) against non-reducing (49 kDa)

B1: Human Ztgfβ-9 protein (ligand)
chain: AGAPRAGRRPARPRGCADRPEELLEQLYGRLAAGVLSAFHHTLQLGPREQARNASCPAGGRPADRRFRPPTNLRSVSPWAYRISYDPARYPRYLPEAYCLCRGCLTGLFGEEDVRFRSAPVYMPTVVLRRTPACAGGRSVYTEAYVTIPVGCTCVPEPEKDADSINSSIDKQGAKLLLGPNDAPAGP
notes: Expressed in BHK cells without a tag and secreted into the medium; also called transforming growth factor beta-9
binding result: binds
